B1: BARD1 BRCT (BARD1^554-777), wild type (domain or fragment)
chain: ASHCSVMNTGQRRDGPLVLIGSGLSSEQQKMLSELAVILKAKKYTEFDSTVTHVVVPGDAVQSTLKCMLGILNGCWILKFEWVKACLRRKVCEQEEKYEIPEGPRRSRLNREQLLPKLFDGCYFYLWGTFKHHPKDNLIKLVTAGGGQILSRKPKPDSDVTQTINTVAYHARPDSDQRFCTQYIIYEDLCNYHPERVRQGKVWKAPSSWFIDCVMSFELLPLDS
B2: pS5pS7 GST-(CTD)26 (domain or fragment)
chain: not shown
modifications: phosphoserine at S5 and S7 of the CTD heptads (pS5pS7)

Legend:
[1] = target: the molecule itself; assay: cross-linking
[2] = target: T1, biotinylated Avi-BARD1^554-777, wild type (human, UniProt Q99728 554-777, biotinylated by MBP-BirA); assay: BLI
T1 sequence: B1 chain

| Binder | binding result [1] | Kd [2] |
| --- | --- | --- |
| B1 | binds | – |
| B2 | – | 193 nM |

Source: doi:10.1101/2025.01.22.634233 (bioRxiv, 2025)
